In publication doi:10.1101/2021.05.06.442885:

Molecular target: human Xkr8 (hXkr8), from hXkr8-TH-mGFP after TEV cleavage (human) (UniProt Q9H6D3)
Experiment: cryo-EM structure

UniProt Q9H6D3, sequence (Q9H6D3 whole entry): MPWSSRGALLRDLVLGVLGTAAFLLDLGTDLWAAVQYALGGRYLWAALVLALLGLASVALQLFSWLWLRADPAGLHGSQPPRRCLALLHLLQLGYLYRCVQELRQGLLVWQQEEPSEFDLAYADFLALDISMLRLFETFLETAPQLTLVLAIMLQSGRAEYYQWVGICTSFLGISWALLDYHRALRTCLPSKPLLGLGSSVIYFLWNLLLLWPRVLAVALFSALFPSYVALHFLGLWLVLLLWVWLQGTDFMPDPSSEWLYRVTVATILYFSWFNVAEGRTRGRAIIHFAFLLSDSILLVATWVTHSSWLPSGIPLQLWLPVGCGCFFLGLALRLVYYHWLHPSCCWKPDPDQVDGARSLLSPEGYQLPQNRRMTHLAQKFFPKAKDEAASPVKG

stoichiometry N: 1
Substance: hBSGΔ (human basigin lacking Ig-like domain 1, N152Q/N186Q, C-terminal FLAG) (domain or fragment)
